In patent publication US20240355418A1, “MULTIPLEX, TEMPORALLY RESOLVED MOLECULAR SIGNAL RECORDER AND RELATED METHODS” (University of Washington, priority 2021, published 2024):

Key:
[1] = test system: HEK293T and monoclonal lineage tracing cell line (iPE2(+) LT(+)); assay: Cell doubling time with or without Doxycycline; format: cell-based
Source text: (A). Cell doubling times measured for HEK293T and the monoclonal lineage tracing cell line (iPE2(+) LT(+)), with or without Doxycycline (Dox). […] P values were obtained using the two-tailed Student's t-test with Bonferroni correction: only *P<0.05 are shown. The center and error bars are mean and standard deviations, respectively, from n=3 independent experiments.

[2] = test system: PE2(+) 3N-TAPE-1-pegRNA(+) HEK293T; assay: Editing and recovery of 12× and 20×TAPE-1 arrays, 40 days, PacBio sequencing; format: cell-based; settings: 40 days culture
Source text: To evaluate the extent to which such issues might be limiting in practice, a synthetic minisatellite in the form of 12 or 20 repeats of the 14-bp TAPE-1 monomer was generated. 12×TAPE-1 was synthesised as single-stranded DNA (IDT) and 20×TAPE-1 as a plasmid (GenScript). PCR amplicons of each array were cloned into the piggyBAC vector via Gibson assembly. Of note, cloned constructs were used “as is”, even though it is possible that some degree of variation in repeat number was already present (FIG. 11A-11B). […] PCR amplification of TAPE-1 was followed by standard library construction and sequencing on the Pacific Bioscience Sequel platform to obtain circular consensus sequencing (CCS) reads. […]
CCS reads were grouped within each replicate based on a degenerate 8-bp barcode (TargetBC), as these presumably derived from the same integration. On average, each TargetBC group had 3.1±3.4 and 3.8±5.7 reads for ˜ 12×TAPE-1 and ˜20×TAPE-1, respectively.
For long-read amplicon sequencing library preparation, a two-step PCR protocol was used: the first PCR reaction (KAPA Robust polymerase) included 1.5 uL of cell lysate, 0.04 to 0.4 uM of forward and reverse primers in a final reaction volume of 25 μL. […] After the first PCR step, products were assessed on 6% TBE-gel and purified using 0.6×AMPure (Beckman Coulter) and added to the second PCR reaction that appended PacBio sample indexes. […]

Row | Molecule | Effect on cell doubling time [1] | Edits per array [2] [edits] | Repeats of TAPE-1 monomers recovered (average) [2] [repeats]
1 | C[C@H]1c2cccc(O)c2C(=O)C2=C(O)[C@]3(O)C(=O)C(C(N)=O)=C(O)[C@@H](N(C)C)[C@@H]3[C@@H](O)[C@@H]21 [Dox, Doxycycline hyclate] | lengthened the cell doubling time |  | 
2 | 12×TAPE-1: 12 repeats of the 14-bp TAPE-1 monomer, SEQ ID NO: 118 (nucleic acid) DNA: CACCNNNNNNNNGGATGATGGTGAGCACGTGATGGTGAGCACGTGATGGTGAGCACGTGATGGTGAGCACGTGATGGTGAGCACGTGATGGTGAGCACGTGATGGTGAGCACGTGATGGTGAGCACGTGATGGTGAGCACGTGATGGTGAGCACGTGATGGTGAGCACGTGATGGTGAGCACGTGATGGTGAGCGCTTTAAGGC |  | 4.5±1.3 | 8.4±3.3
